Numbering of substitutions follows the chain as printed.
B1: antibody 3871 (antibody, V domains shown)
VH: QVQLVQSGAEVKKPGSSVKVSCKASGFNIKDDYMHWVRQAPGQGLEWMGWIDPENGDTEYASKFQGRVTITADESTSTAYMELSSLRSEDTAVYYCLYGNFYYFDYWGQGTTVTVSS
VL: EIVLTQSPATLSLSPGERATLSCSASSSINYMHWYQQKPGQAPKRWIYDTSKLASGVPARFSGSGSGTDFTLTISSLEPEDFAVYYCHQRSFSPLTFGQGTKLEIK
notes: Humanized from 3807: VH is 3807-VH1 and VL is 3807-VL3
B2: antibody 3882 (antibody, human IgG4 S228P, kappa, V domains shown)
VH: B1 VH with F27G, N28T, I29F, K30S
VL: EIVLTQSPATLSLSPGERATLSCSASSSINYMHWYQQKPGQAPKRWIYDTSKLASGVPARFSGSGSGTDFTLTISSLEPEDFAVYYCHQRSFSPLTFGQGTKLEIKR
B3: antibody 3875 (antibody, V domains shown)
VH: B1 VH with E74T, T76A, S77N
VL: B1 VL
notes: Humanized from 3807: VH is 3807-VH5 and VL is 3807-VL3
B4: antibody 0012 (antibody, V domains shown)
VH: QVQLQQSGAEVKKPGASVKVSCKVSGYTLTELSMHWVRQAPGKGLEWMGGFDPEDGETIYAQKFQGRVTMTEDTSTDTAYMELSSLRSEDTAVYYCATDPHRTWWRYFDWLYPRGMDVWGQGTTVTVSS
VL: EIVMTQSPGTLSLSPGERATLSCRASQTVGKNYLAWYQQKPGQAPRLLIYGASNRATGIPDRFSGSGSGTDFTLTISRLEPEDFGTYYCQQFRSYPYTFGQGTKVEIK
B5: antibody 1209 (0012-K3) (antibody, human IgG1, kappa, V domains shown)
VH: B4 VH with E31S, L32I, S33L, E54Q, I59V
VL: EIVMTQSPGTLSLSPGERATLSCRASQTVGKNYLAWYQQKPGQAPRLLIYEASVRALGIPDRFSGSGSGTDFTLTISRLEPEDFGTYYCQQFRSYPYTFGQGTKVEIKR
B6: antibody 3807 (antibody, V domains shown)
VH: EVQLQQSGAELVRPGTSVKLSCIASGFNIKDDYMHWVKQRPEQGLEWIGWIDPENGDTEYASKFQGKATITADTSANTAYLQFSSLTSEDTAVYYCLYGNFYYFDYWGQGTTLTVSS
VL: QIVLTQSPAIMSASPGEKVTMTCSASSSINYMHWYQQKPGTSPKRWIYDTSKLASGVPARFSGSGSGTSYSLTISSMEAEDAATYYCHQRSFSPLTFGAGTKLELK
notes: Murine variable regions; also called murine antibody 3807; hybridoma clone 3807
B7: BAY1213790 (antibody, human IgG1, kappa, V domains shown)
VH: EVQLLESGGGLVQPGGSLRLSCAASGFTFSQYGMDWVRQAPGKGLEWVSGIGPSGGSTVYADSVKGRFTISRDNSKNTLYLQMNSLRAEDTAVYYCTRGGPYYYYGMDVWGQGTTVTVSS
VL: DIQMTQSPSSLSASVGDRVTITCQASQDISNYLNWYQQKPGKAPKLLIYDASNLETGVPSRFSGSGSGTDFTFTISSLQPEDIATYYCQQADSFPVTFGGGTKVEIKR
B8: antibody 1267 (Kg3g) (antibody, human IgG1, kappa, V domains shown)
VH: B4 VH with Q5V, E31S, L32I, S33L, E54Q, I59V
VL: B5 VL with M4L, G85A, T86V
notes: Heavy chain is VH + human CH1 + IgG1 Fc

Each binder was assayed against T1, Human FXI protein (coagulation factor XI) (human, UniProt P03951 19-625) (assay: cell-based or functional assay).

Row | Binder | aPTT1.5 (concentration prolonging aPTT by 50% relative to PBS), human blood
1 | B1 | 0.88 µg/mL
2 | B2 | 0.63 µg/mL
3 | B3 | 0.87 µg/mL
4 | B4 | 14.6 µg/mL
5 | B5 | 4.68 µg/mL
6 | B6 | 1.33 µg/mL
7 | B7 | 2.15 µg/mL

Each binder was assayed against monkey FXI (in monkey plasma) (monkey) (assay: cell-based or functional assay).

Row | Binder | aPTT1.5 (concentration prolonging aPTT by 50% relative to PBS), monkey blood
8 | B1 | 1.12 µg/mL
9 | B2 | 1.14 µg/mL
10 | B4 | > 8.33 µg/mL
11 | B5 | 4.08 µg/mL
12 | B6 | 1 µg/mL
13 | B7 | 2.73 µg/mL

Each binder was assayed against T1, Human FXI protein (coagulation factor …) (assay: SPR (Biacore T200), antibody captured on Protein A chip, FXI as analyte, 1:1 Langmuir fit).
Description: (§1) A certain amount of antibodies to be tested was affinity-captured using a Protein A biosensor chip (Cat. #29127556, GE), then FXI/FXIa at a series of concentration gradients flowed through the surface of the chip. The reaction signals were detected in real time using a Biacore instrument (Biacore T200, GE) to obtain association and dissociation curves. After dissociation was completed for each cycle, the biochip was washed and regenerated with a regeneration solution prepared in a human antibody capture kit or a glycine-hydrochloric acid regeneration solution (pH 1.5, Cat. #BR-1003-54, GE). The buffer used in the experiment was HBS-EP+10× buffer (Cat. #BR-1006-69, GE) diluted to 1× (pH 7.4) with double distilled water.
(§2) The data obtained from the experiment were fitted using BIAevaluation version 4.1, GE software using a (1:1) Langmuir model to obtain affinity values. The test results of part of antibodies are shown in FIG. 1A, FIG. 1B and Table 6 below.

Row | Binder | Kd | koff | kon
14 | B1 | 0.02 nM | 2.66e-05 s⁻¹ | 1.32e+06 M⁻¹ s⁻¹
15 | B2 | 0.0296 nM | 5.85e-05 s⁻¹ | 1.97e+06 M⁻¹ s⁻¹
16 | B3 | 0.0378 nM | 3.02e-05 s⁻¹ | 799000 M⁻¹ s⁻¹

What follows are binders tested against T2, Human FXIa protein (activated coagulation factor XI) (human, UniProt P03951 19-625) (assay: SPR (Biacore T200), antibody captured on Protein A chip, FXIa as analyte, 1:1 Langmuir fit).
T2 construct: Bought from Enzyme Research Laboratories (HFXIa 1111a); also called factor XIa; HFXIa 1111a
Description: as §1, §2

Row | Binder | Kd | koff | kon
17 | B1 | 0.57 nM | 0.000708 s⁻¹ | 1.24e+06 M⁻¹ s⁻¹
18 | B2 | 0.364 nM | 0.000387 s⁻¹ | 1.06e+06 M⁻¹ s⁻¹
19 | B3 | 0.22 nM | 0.000336 s⁻¹ | 1.53e+06 M⁻¹ s⁻¹
20 | B8 | 0.0222 nM | 1.79e-05 s⁻¹ | 873000 M⁻¹ s⁻¹
21 | B6 | 0.148 nM | 0.000235 s⁻¹ | 1.59e+06 M⁻¹ s⁻¹

From patent publication US20230220111A1 (BEIJING TUO JIE BIOPHARMACEUTICAL, published 2023)
